From US20250197482A1 (UNITED STATES OF AMERICA AS REPRESENTED BY THE SECRETARY …, published 2025)

Legend:
Test in all cases: cell-based or functional assay
[1] = target: T1, HIV-1 Env of strain WITO.33 (Env-pseudotyped virus) (HIV-1)
[2] = target: HIV-1 Env of strain SC422.8 (Env-pseudotyped virus) (HIV-1)
[3] = target: CAP256 wk34c80 (HIV-1)
[4] = target: T1, HIV-1 Env of strain WITO.33 …; remark: listed apart in the source

Row | Binder | neutralization potency, fold better than that of J3 [1] [fold] | neutralization potency, fold better than that of J3 [2] [fold] | % neutralization, single point, Env-pseudotyped virus on TZM-bl [3] [%] | % neutralization, single point, Env-pseudotyped virus on TZM-bl [4] [%]
1 | CAP256V2LS-J3-2 (bispecific antibody) heavy: not shown light: EVQLVESGGGLVQAGGFLRLSCELRGSIFNQYAMAWFRQAPGKEREFVAGMGAVPHYGEFVKGRFTISRDNAKSTVYLQMSSLKPEDTAIYFCARSKSTYISYNSNGYDYWGRGTQVTVSSGGSGGGGSGGQSVLTQPPSVSAAPGQKVTISCSGNTSNIGNNFVSWYQQRPGRAPQLLIYETDKRPSGIPDRFSASKSGTSGTLAITGLQTGDEADYYCATWAASLSSARVFGTGTQVIVLGQPKVNPTVTLFPPSSEELQANKATLVCLISDFYPGAVTVAWKADSSPVKAGVETTTPSKQSNNKYAASSYLSLTPEQWKSHRSYSCQVTHEGSTVEKTVAPTECS | ~10 | 3 | 100 | 100
2 | CAP256V2LS-10E8-3 (bispecific antibody) heavy chain: not shown light chain (10E8v4 scFv, linker, CAP256V2LS LC): EVRLVESGGGLVKPGGSLRLSCSASGFDFDNAWMTWVRQPPGKGLEWVGRITGPGEGWSVDYAESVKGRFTISRDNTKNTLYLEMNNVRTEDTGYYFCARTGKYYDFWSGYPPGEEYFQDWGQGTLVIVSSGGGGSGGGGSGGGGSSELTQDPAVSVALKQTVTITCRGDSLRSHYASWYQKKPGQAPVLLFYGKNNRPSGIPDRFSGSASGNRASLTITGAQAEDEADYYCSSRDKSGSRLSVFGGGTKLTVGGSGGGGSGGGGSGGQSVLTQPPSVSAAPGQKVTISCSGNTSNIGNNFVSWYQQRPGRAPQLLIYETDKRPSGIPDRFSASKSGTSGTLAITGLQTGDEADYYCATWAASLSSARVFGTGTQVIVLGQPKVNPTVTLFPPSSEELQANKATLVCLISDFYPGAVTVAWKADSSPVKAGVETTTPSKQSNNKYAASSYLSLTPEQWKSHRSYSCQVTHEGSTVEKTVAPTECS | – | – | 99 | 21
3 | CAP256V2LS-J3-3 (bispecific antibody) heavy: not shown light: EVQLVESGGGLVQAGGFLRLSCELRGSIFNQYAMAWFRQAPGKEREFVAGMGAVPHYGEFVKGRFTISRDNAKSTVYLQMSSLKPEDTAIYFCARSKSTYISYNSNGYDYWGRGTQVTVSSGGSGGGGSGGGGSGGQSVLTQPPSVSAAPGQKVTISCSGNTSNIGNNFVSWYQQRPGRAPQLLIYETDKRPSGIPDRFSASKSGTSGTLAITGLQTGDEADYYCATWAASLSSARVFGTGTQVIVLGQPKVNPTVTLFPPSSEELQANKATLVCLISDFYPGAVTVAWKADSSPVKAGVETTTPSKQSNNKYAASSYLSLTPEQWKSHRSYSCQVTHEGSTVEKTVAPTECS | ~10 | 3 | 100 | 89
